The numbers were not newly measured in publication PMC5401657, which cites them from elsewhere.

The target in the data set is integrin αvβ3 (Homo sapiens) (UniProt P06756). Nature of the data set: SPR. (SPR reads the build-up and loss of mass on a sensor chip optically.)
Chain of UniProt P06756 (P06756 31-992, chain 1 of 2): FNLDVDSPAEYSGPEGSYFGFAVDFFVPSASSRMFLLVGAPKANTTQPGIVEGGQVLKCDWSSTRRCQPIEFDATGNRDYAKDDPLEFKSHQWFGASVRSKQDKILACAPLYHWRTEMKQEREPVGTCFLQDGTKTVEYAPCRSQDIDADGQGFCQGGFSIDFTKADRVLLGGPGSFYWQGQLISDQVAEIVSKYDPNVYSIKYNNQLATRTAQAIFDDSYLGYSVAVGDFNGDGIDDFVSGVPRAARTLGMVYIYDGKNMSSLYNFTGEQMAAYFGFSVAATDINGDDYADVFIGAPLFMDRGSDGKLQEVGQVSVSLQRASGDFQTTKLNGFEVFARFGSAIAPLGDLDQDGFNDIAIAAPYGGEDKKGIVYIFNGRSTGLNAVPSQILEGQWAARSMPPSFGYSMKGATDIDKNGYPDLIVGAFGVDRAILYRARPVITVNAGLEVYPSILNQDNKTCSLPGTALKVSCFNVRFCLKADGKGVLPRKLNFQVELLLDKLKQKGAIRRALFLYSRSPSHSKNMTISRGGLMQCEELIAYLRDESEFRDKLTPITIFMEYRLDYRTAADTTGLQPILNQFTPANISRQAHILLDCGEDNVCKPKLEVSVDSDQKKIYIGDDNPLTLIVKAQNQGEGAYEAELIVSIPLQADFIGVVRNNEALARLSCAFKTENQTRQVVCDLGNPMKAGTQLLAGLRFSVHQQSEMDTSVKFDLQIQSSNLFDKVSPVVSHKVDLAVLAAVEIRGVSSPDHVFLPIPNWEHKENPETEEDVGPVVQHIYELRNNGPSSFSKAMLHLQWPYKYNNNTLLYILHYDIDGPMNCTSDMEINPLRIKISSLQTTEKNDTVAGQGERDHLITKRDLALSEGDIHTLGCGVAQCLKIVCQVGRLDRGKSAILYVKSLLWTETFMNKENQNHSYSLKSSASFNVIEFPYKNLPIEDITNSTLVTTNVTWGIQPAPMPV
Chain of UniProt P06756 (P05106 27-718, chain 2 of 2, further chain): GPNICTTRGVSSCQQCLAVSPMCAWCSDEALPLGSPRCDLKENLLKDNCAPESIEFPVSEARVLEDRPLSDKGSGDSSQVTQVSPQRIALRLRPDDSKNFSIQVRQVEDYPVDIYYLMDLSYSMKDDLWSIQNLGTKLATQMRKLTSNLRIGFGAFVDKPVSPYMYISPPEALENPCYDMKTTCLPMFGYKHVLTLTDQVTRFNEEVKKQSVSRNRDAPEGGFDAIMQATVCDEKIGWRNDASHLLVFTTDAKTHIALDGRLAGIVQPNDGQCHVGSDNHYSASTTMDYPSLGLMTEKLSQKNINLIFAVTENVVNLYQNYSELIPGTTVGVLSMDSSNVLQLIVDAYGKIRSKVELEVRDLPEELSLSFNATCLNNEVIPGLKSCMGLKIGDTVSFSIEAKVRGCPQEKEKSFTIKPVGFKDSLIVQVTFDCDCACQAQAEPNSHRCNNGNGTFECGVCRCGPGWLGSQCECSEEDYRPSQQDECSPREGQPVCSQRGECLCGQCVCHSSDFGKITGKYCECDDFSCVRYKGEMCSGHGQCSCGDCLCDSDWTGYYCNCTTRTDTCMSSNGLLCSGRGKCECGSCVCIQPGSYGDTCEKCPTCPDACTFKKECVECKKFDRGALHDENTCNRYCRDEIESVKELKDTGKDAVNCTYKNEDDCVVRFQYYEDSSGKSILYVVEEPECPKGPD

Consider IGF1 (from UniProt P05019), for which the Kd (usually the free concentration of one partner at which half of the binding sites on the other are occupied at equilibrium, for simple one-to-one binding) is 500 nM.
